In general, Km refers to the substrate concentration at which the rate is half of its maximum. For orientation: stoichiometry N means the number of molecules, sites or subunits per partner or assembly.

Four molecules from PMC5397151 (Nucleic Acids Research, 2017) can be followed below.

One data set has as its system pyRbkR. Description: HPLC end-point riboflavin kinase assay, FMN detected at […] nm. To be noted: read-out: apparent Km; saturating CTP (0.2 mM), 5 mM MgCl2, 0.1 M NaCl, HEPES pH 8, 60 °C. Type of data set: biochemical, Pyrobaculum yellowstonensis.
Data set [1] concerns the target T1, taRbkR (Thermoplasma acidophilum, UniProt Q9HJA6 1-220).
T1 sequence: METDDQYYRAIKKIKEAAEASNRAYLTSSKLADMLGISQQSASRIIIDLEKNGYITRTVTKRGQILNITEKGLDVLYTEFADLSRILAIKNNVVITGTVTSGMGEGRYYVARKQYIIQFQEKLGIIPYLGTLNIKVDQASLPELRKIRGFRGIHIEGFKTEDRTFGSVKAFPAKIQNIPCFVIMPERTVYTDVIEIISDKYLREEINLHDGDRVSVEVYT
In words: fluorescence polarization. A general note: In fluorescence polarisation assays a small probe gives low polarisation when free and higher when bound to something large.

The data set “crystal structure” deals with the molecule itself. In words: crystal structure.
The target of data set [2] is T1, taRbkR. Description: X-ray crystallography 1.85 A.

Regarding `Cc1cc2nc3c(=O)[nH]c(=O)nc-3n(C[C@H](O)[C@H](O)[C@H](O)CO)c2cc1C` [riboflavin], the Michaelis-Menten constant (Km) in the data set with pyRbkR amounted to 73 ± 26 µM.

B1: ta ribT 35 bp (dsDNA)
DNA 1: TATGCTACTAATTCACGAGTAATTACTCAAATATT
DNA 2: AATATTTGAGTAATTACTCGTGAATTAGTAGCATA
On to B1, for which the “apparent K (half saturation)” value in the data set with taRbkR [1] was roughly 16 nM.

B2: RbkR protein from Thermoplasma acidophilum (bifunctional riboflavin kinase/regulator) (natural protein)
chain: ETDDQYYRAIKKIKEAAEASNRAYLTSSKLADMLGISQQSASRIIIDLEKNGYITRTVTKRGQILNITEKGLDVLYTEFADLSRILAIKNNVVITGTVTSGMGEGRYYVARKQYIIQFQEKLGIIPYLGTLNIKVDQASLPELRKIRGFRGIHIEGFKTEDRTFGSVKAFPAKIQNIPCFVIMPERTVYTDVIEIISDKYLREEINLHDGDRVSVEVYT
B2: the “stoichiometry N” value in the data set “crystal structure” was 2.

B3: ta ribT operator crystal duplex (dsDNA)
DNA 1: ATTACTAATTCACGAGTAA
DNA 2: TTTACTCGTGAATTAGTAA
B3: the binding result with taRbkR [2] is given as “binds”.
